The target in assay [1] is T1, CSPG4 (chondroitin sulfate proteoglycan 4) on human tumor cell lines (human, UniProt Q6UVK1 30-2322).
T1 construct: Endogenous CSPG4 on human cell lines (A2058, Malme-3M, A375, SW1353, NCI-H2052); also called HMW MAA; MCSP
The assay is described as follows: flow cytometry on SW1353 chondrosarcoma cells, 8-point dose curve, anti-hIgG-AF488. How it is done: (§1) Flow Cytometry—Cells were rinsed with PBS (phosphate buffered saline, pH 7.4) and harvested with Versene (Thermo Fisher) prior to incubation with FACs buffer (PBS+1% fetal bovine serum (FBS; source BioSun) containing test antibody or ADCs for 1 h at 4° C. Cells were rinsed and washed with FACs buffer (PBS+1% FBS) and detection was performed with anti-bigG-AF488. Cells were analyzed on a FACs Canto II (BD Biosciences). Quantitative FACs (qFACs) was performed to measure the number of antigen binding sites with the DAKO QifiKit (DAKO, Carpinteria, CA), according to the manufacturer's directions.
(§2) FACs binding of ARD107 antibody and corresponding conjugates to CSPG4-positive cell lines was conducted. The melanoma A2058 and Malme-3M, the SW1353 chondrosarcoma, and the NCI-H1975 lung cell lines were incubated with increasing concentrations (8-point dose curve) of the antibody, conjugates (ARD107-vcMMAE or ARD107-SN38 (ARD107-CL2A-SN-38)), or isotype control (hIgG1) for 1 hr at 4° C. Detection was done with an anti-hIgG-AF488 secondary antibody.
(A flow cytometer gives signals particle by particle.)

The target of assay [2] is T1, CSPG4 (chondroitin sulfate proteoglycan …). The assay is described as follows: flow cytometry on A2058 melanoma cells, 6-point dose curve, anti-hIgG-AF488. How it is done: as §1
(§3) The CSPG4+A2058 and A375 melanoma and the lung NCI-H2052 and NCI-H1975 cell lines were incubated with increasing concentrations of the antibody (6-point dose curve) for 1 hr at 4° C. Detection was done with an anti-hIgG-AF488 secondary antibody.
(§4) The data were graphed and estimated binding constants (EC50 in table) were determined with Prism (GraphPad Software, San Diego, CA).

Assay [3] shares this target. The assay can be described thus: flow cytometry on NCI-H2052 lung cells, 6-point dose curve, anti-hIgG-AF488. How it is done:
as §1, §3, §4

For assay [4] the target is unchanged. The assay can be described thus: flow cytometry on Malme-3M melanoma cells, 8-point dose curve, anti-hIgG-AF488. The protocol:
as §1, §2

Assay [5] has the same target. The assay can be described thus: flow cytometry on A2058 melanoma cells, 8-point dose curve, anti-hIgG-AF488. How it is done:
as §1, §2

For assay [6] the target is unchanged. The assay can be described thus: flow cytometry on A375 melanoma cells, 6-point dose curve, anti-hIgG-AF488. The protocol: as §1, §3, §4

T1 sequence (Q6UVK1 30-2322 limits assumed): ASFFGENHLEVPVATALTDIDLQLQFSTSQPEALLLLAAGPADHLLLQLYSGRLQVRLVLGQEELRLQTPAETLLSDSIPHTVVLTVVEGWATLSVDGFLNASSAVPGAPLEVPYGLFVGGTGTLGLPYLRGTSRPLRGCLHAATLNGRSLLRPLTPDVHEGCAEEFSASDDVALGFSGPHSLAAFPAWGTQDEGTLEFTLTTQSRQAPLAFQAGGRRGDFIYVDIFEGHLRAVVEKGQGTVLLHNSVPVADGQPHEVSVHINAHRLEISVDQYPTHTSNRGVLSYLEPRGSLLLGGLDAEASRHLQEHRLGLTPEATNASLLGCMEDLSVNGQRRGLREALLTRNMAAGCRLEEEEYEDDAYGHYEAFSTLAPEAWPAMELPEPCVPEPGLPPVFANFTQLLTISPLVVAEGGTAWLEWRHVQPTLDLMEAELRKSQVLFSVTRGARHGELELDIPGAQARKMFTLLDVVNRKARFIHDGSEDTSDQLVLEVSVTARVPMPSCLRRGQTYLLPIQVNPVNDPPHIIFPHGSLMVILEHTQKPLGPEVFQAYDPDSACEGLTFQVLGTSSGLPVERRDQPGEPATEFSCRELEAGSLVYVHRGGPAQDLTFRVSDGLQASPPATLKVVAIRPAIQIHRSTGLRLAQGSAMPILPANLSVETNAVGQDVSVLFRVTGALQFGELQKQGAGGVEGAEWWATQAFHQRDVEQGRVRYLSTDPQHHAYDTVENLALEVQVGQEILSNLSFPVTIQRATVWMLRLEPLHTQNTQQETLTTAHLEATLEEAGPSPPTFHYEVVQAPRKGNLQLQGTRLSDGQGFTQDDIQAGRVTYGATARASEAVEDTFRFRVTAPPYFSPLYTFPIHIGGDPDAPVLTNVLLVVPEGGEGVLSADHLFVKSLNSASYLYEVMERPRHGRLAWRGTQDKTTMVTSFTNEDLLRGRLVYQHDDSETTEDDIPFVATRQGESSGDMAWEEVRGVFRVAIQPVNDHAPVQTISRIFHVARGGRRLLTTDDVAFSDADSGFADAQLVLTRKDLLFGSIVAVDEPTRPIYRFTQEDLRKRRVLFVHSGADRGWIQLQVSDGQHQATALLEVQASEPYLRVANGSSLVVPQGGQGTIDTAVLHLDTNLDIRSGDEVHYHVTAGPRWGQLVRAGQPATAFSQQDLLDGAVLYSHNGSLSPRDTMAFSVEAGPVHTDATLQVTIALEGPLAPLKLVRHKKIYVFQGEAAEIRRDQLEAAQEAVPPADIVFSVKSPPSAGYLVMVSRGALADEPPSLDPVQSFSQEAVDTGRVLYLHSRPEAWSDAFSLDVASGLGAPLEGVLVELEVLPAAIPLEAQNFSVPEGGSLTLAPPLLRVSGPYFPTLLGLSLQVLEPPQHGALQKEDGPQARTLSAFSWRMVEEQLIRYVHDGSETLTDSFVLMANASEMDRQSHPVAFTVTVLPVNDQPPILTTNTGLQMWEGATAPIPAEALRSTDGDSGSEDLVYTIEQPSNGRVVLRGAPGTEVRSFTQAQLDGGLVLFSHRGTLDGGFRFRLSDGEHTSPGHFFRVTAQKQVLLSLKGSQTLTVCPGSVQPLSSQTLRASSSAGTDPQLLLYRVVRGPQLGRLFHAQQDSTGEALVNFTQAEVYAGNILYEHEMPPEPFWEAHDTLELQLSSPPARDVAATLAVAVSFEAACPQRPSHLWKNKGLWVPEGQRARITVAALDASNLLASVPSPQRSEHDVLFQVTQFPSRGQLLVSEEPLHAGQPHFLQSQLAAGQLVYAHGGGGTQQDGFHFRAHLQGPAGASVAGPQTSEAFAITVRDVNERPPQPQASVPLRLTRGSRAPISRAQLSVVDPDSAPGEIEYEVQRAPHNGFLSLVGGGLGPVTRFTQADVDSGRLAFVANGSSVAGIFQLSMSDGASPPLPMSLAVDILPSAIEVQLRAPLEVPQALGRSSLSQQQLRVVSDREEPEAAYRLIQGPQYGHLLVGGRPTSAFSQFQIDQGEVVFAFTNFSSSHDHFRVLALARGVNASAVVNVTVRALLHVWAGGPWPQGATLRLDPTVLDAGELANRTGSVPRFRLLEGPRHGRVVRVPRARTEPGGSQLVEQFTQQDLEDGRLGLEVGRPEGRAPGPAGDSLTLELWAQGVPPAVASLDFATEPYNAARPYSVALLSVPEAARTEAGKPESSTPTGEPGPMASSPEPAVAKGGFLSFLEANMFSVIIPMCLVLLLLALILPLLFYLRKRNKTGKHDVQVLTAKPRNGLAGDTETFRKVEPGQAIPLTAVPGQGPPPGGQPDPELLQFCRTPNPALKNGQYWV

B1: ARD107 antibody (antibody, human IgG1, kappa, V domains shown)
VH: EVQLQESGPGLVKPSQSLSLTCSVTGYSITSGYYWNWIRQFPGNKLEWMGYITYDGSNNYNPSLKNRISITRDTSKNQFFLKLNSVTTEDTATYYCADFDYWGQGTTLTVSS
VL: DIVLTQSPSSLSASLGDRVTISCSASQGIRNYLNWYQQRPDGTVKLLIYYTSSLHSGVPSRFSGSGSGTDYSLTISNLEPEDIATYYCQQYSKLPWTFGGGTKLEIKR
notes: also called unconjugated ARD107 monoclonal antibody
For B1, the half-maximal effective concentration (EC50) in assay [1] was 0.21 nM; in assay [2], 0.24 nM; in assay [3] it was 0.3 nM; in assay [4], 0.59 nM; in assay [5], 0.48 nM; in assay [6], 0.19 nM.

For orientation: EC50 means the concentration that produces a half-maximal response. Read a low EC50 as a more potent agent.

For the origin of these results see patent US20250213715A1, “ANTI-CSPG4 BINDING AGENTS, CONJUGATES THEREOF AND METHODS OF USING THE SAME” (Ardeagen Corporation, priority 2020, published 2025).
